{"source": "paper PMC9883682", "about": "“Fatty acids negatively regulate platelet function through formation of noncanonical 15‐lipoxygenase‐derived eicosanoids” (Pharmacology Research & Perspectives, 2023)", "molecules": {"B1": {"name": "12‐LOX (Homo sapiens) (protein)", "chain": "MGRYRIRVATGAWLFSGSYNRVQLWLVGTRGEAELELQLRPARGEEEEFDHDVAEDLGLLQFVRLRKHHWLVDDAWFCDRITVQGPGACAEVAFPCYRWVQGEDILSLPEGTARLPGDNALDMFQKHREKELKDRQQIYCWATWKEGLPLTIAADRKDDLPPNMRFHEEKRLDFEWTLKAGALEMALKRVYTLLSSWNCLEDFDQIFWGQKSALAEKVRQCWQDDELFSYQFLNGANPMLLRRSTSLPSRLVLPSGMEELQAQLEKELQNGSLFEADFILLDGIPANVIRGEKQYLAAPLVMLKMEPNGKLQPMVIQIQPPNPSSPTPTLFLPSDPPLAWLLAKSWVRNSDFQLHEIQYHLLNTHLVAEVIAVATMRCLPGLHPIFKFLIPHIRYTMEINTRARTQLISDGGIFDKAVSTGGGGHVQLLRRAAAQLTYCSLCPPDDLADRGLLGLPGALYAHDALRLWEIIARYVEGIVHLFYQRDDIVKGDPELQAWCREITEVGLCQAQDRGFPVSFQSQSQLCHFLTMCVFTCTAQHAAINQGQLDWYAWVPNAPCTMRMPPPTTKEDVTMATVMGSLPDVRQACLQMAISWHLSRRQPDMVPLGHHKEKYFSGPKPKAVLNQFRTDLEKLEKEITARNEQLDWPYEYLKPSCIENSVTI"}}, "format_in_all_cases": "biochemical", "key": {"[1]": {"target": "T1, 12‐LOX (Homo sapiens, UniProt P18054)", "T1 construct": "gene ALOX12", "T1 sequence (P18054 1-663)": "B1 chain", "experiment": "inhibition of purified recombinant 12-LOX with […] AA as substrate"}, "[2]": {"substrate": "CC/C=C\\C[C@@H](/C=C/C=C\\C/C=C\\C/C=C\\CCCC(=O)O)OO", "experiment": "steady-state UV kinetics with purified human 12-LOX (kM); LC-MS product profile", "conditions": "also described as a […]‐LOX allosteric regulator that affects secondary product formation"}, "[3]": {"substrate": "CCCCC[C@@H](/C=C/C=C\\C/C=C\\C/C=C\\CCCC(=O)O)OO", "experiment": "steady-state UV kinetics with purified human 12-LOX (kM); LC-MS product profile"}, "[4]": {"substrate": "CCCCC[C@@H](/C=C/C=C\\C/C=C\\CCCCCCC(=O)O)OO", "experiment": "steady-state UV kinetics with purified human 12-LOX (kM); LC-MS product profile"}, "[5]": {"substrate": "CC/C=C\\C/C=C\\C/C=C\\C/C=C\\C/C=C\\CCCC(=O)O", "experiment": "steady-state UV kinetics with purified human 12-LOX (kM)"}, "[6]": {"substrate": "CCCCC/C=C\\C/C=C\\C/C=C\\C/C=C\\CCCC(=O)O", "experiment": "steady-state UV kinetics with purified human 12-LOX (kM)"}, "[7]": {"substrate": "CCCCC/C=C\\C/C=C\\C/C=C\\CCCCCCC(=O)O", "experiment": "steady-state UV kinetics with purified human 12-LOX (kM)"}}}
{"molecule": "CCCCC[C@H](O)/C=C/C=C\\C/C=C\\CCCCCCC(=O)O", "note": "[15‐HETrE]", "values": [{"measurement": "IC50", "setting": "[1]", "value": "105 ± 55", "unit": "µM"}]}
{"molecule": "CC/C=C\\C[C@H](O)/C=C/C=C\\C/C=C\\C/C=C\\CCCC(=O)O", "note": "[15‐HEPE]", "values": [{"measurement": "IC50", "setting": "[1]", "value": "142 ± 11", "unit": "µM"}]}
{"molecule": "CCCCC[C@H](O)/C=C/C=C\\C/C=C\\C/C=C\\CCCC(=O)O", "note": "[15‐HETE]", "values": [{"measurement": "IC50", "setting": "[1]", "value": "46 ± 19", "unit": "µM"}]}
{"molecule": "B1", "values": [{"measurement": "Km", "setting": "[2]", "value": "9.2 ± 1", "unit": "µM"}, {"measurement": "kcat", "setting": "[2]", "value": "0.93 ± 0.06", "unit": "s⁻¹"}, {"measurement": "kcat/Km", "setting": "[2]", "value": "100000 ± 8000", "unit": "M⁻¹ s⁻¹"}, {"measurement": "Km", "setting": "[3]", "value": "5.8 ± 0.4", "unit": "µM"}, {"measurement": "kcat", "setting": "[3]", "value": "1.5 ± 0.05", "unit": "s⁻¹"}, {"measurement": "kcat/Km", "setting": "[3]", "value": "260000 ± 1000", "unit": "M⁻¹ s⁻¹"}, {"measurement": "Km", "setting": "[4]", "value": "11 ± 1", "unit": "µM"}, {"measurement": "kcat", "setting": "[4]", "value": "0.96 ± 0.05", "unit": "s⁻¹"}, {"measurement": "kcat/Km", "setting": "[4]", "value": "86000 ± 4000", "unit": "M⁻¹ s⁻¹"}, {"measurement": "Km", "setting": "[5]", "value": "1 ± 0.2", "unit": "µM"}, {"measurement": "kcat", "setting": "[5]", "value": "9 ± 0.5", "unit": "s⁻¹"}, {"measurement": "kcat/Km", "setting": "[5]", "value": "8.7e+06 ± 1.2e+06", "unit": "M⁻¹ s⁻¹"}, {"measurement": "Km", "setting": "[6]", "value": "0.49 ± 0.07", "unit": "µM"}, {"measurement": "kcat", "setting": "[6]", "value": "11 ± 0.2", "unit": "s⁻¹"}, {"measurement": "kcat/Km", "setting": "[6]", "value": "2.2e+07 ± 3e+06", "unit": "M⁻¹ s⁻¹"}, {"measurement": "Km", "setting": "[7]", "value": "2.5 ± 0.2", "unit": "µM"}, {"measurement": "kcat", "setting": "[7]", "value": "12 ± 0.3", "unit": "s⁻¹"}, {"measurement": "kcat/Km", "setting": "[7]", "value": "4.9e+06 ± 300000", "unit": "M⁻¹ s⁻¹"}]}
